To fix the notation:
B1: minF1; the commonest letter at each place (parent)
chain: GAGACCGCAACTGAAAAGTTGTTATCAGAAATGGATGGGTTGAATTTCTGCACGTAGAAGCAAAAGGC

Variants of B1 are the subject of the data set. The experiment in a line: fraction ligated after 30 min (ligated reads / total reads); higher = more ligase activity. To be noted: with F1*subA RNA substrate (template-directed ligation), 42 °C. In outline:
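Oligo-pool templates of minimized ligase ribozyme variants were PCR-amplified, T7-transcribed and gel-purified. Ligated and unligated RNAs were gel-separated, reverse transcribed with barcoded primers, and MiSeq-sequenced; core bases were filtered at quality ≥30. Fraction ligated per variant was ligated reads over total reads.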
GAGACCGCAACTGAAAAGTTGTTATCACAAATGGGTGGGTTGAATTTCTGCACGTAGAAGCAAAAGGC: the fraction ligated amounted to 0.0701.

Regarding GAGACCGCAACTGAAAAGTTGTTATCACAAATGGTTGGGTTGAATTTCTGCACGTAGAAGCAAAAGGC, the fraction ligated was 0.0136. Take GAGACCGCAACTGAAAAGTTGTTATCACAAATGGCTGGGTTGAATTTCTGCACGTAGAAGCAAAAGGC: the fraction ligated was 0.0372. In the case of GAGACCGCAACTGAAAAGTTGTTATCAAAAATGGATGGGTTGAGTTTCTGCACGTAGAAGCAAAAGGC, the fraction ligated was found to be 0.753.

In the case of GAGACCGCAACTGAAAAGTTGTTATCAAAAATGGATGGGTTGATTTTCTGCACGTAGAAGCAAAAGGC, the fraction ligated came out at 0.773. For GAGACCGCAACTGAAAAGTTGTTATCAAAAATGGATGGGTTGACTTTCTGCACGTAGAAGCAAAAGGC, the fraction ligated came to 0.667. The figure for GAGACCGCAACTGAAAAGTTGTTATCAAAAGTGGATGGGTTGAATTTCTGCACGTAGAAGCAAAAGGC is 0.799; for GAGACCGCAACTGAAAAGTTGTTATCAAAACTGGATGGGTTGAATTTCTGCACGTAGAAGCAAAAGGC it is 0.802; for GAGACCGCAACTGAAAAGTTGTTATCAAAATTGGATGGGTTGAATTTCTGCACGTAGAAGCAAAAGGC it is 0.821.

As for GAGACCGCAACTGAAAAGTTGTTATCAAACATGGATGGGTTGAATTTCTGCACGTAGAAGCAAAAGGC, the fraction ligated is 0.802.

GAGACCGCAACTGAAAAGTTGTTATCAAATATGGATGGGTTGAATTTCTGCACGTAGAAGCAAAAGGC: the fraction ligated worked out at 0.814. Next, GAGACCGCAACTGAAAAGTTGTTATCAAAGATGGATGGGTTGAATTTCTGCACGTAGAAGCAAAAGGC: 0.816; GAGACCGCAACTGAAAAGTTGTTATCACGAATGGATGGGTTGAATTTCTGCACGTAGAAGCAAAAGGC: 0.812. Next, GAGACCGCAACTGAAAAGTTGTTATCACCAATGGATGGGTTGAATTTCTGCACGTAGAAGCAAAAGGC: 0.795; GAGACCGCAACTGAAAAGTTGTTATCACTAATGGATGGGTTGAATTTCTGCACGTAGAAGCAAAAGGC: 0.831.

On to GAGACCGCAACTGAAAAGTTGTTATCACATATGGATGGGTTGAATTTCTGCACGTAGAAGCAAAAGGC, for which the fraction ligated was found to be 0.825.

As for GAGACCGCAACTGAAAAGTTGTTATCACAGATGGATGGGTTGAATTTCTGCACGTAGAAGCAAAAGGC, the fraction ligated is 0.816. With GAGACCGCAACTGAAAAGTTGTTATCACACATGGATGGGTTGAATTTCTGCACGTAGAAGCAAAAGGC, the fraction ligated was 0.817. The figure for GAGACCGCAACTGAAAAGTTGTTATCACTTTTGGATGGGTTGAATTTCTGCACGTAGAAGCAAAAGGC is 0.752; for GAGACCGCAACTGAAAAGTTGTTATCTGAAAAGGATGGGTTGAATTTCTGCACGTAGAAGCAAAAGGC it is 0.0711. Take GAGACCGCAACTGAAAAGTTGTTATCTGAAACGGATGGGTTGAATTTCTGCACGTAGAAGCAAAAGGC: the fraction ligated was found to be 0.0794.

With GAGACCGCAACTGAAAAGTTGTTATCTGAAAGGGATGGGTTGAATTTCTGCACGTAGAAGCAAAAGGC, the fraction ligated is 0.0604.

Take GAGACCGCAACTGAAAAGTTGTTATCAAAAATGGAGGGGTTGAATTTCTGCACGTAGAAGCAAAAGGC: the fraction ligated was determined as 0.0443. The figure for GAGACCGCAACTGAAAAGTTGTTATCAAAAATGGACGGGTTGAATTTCTGCACGTAGAAGCAAAAGGC is 0.0146; for GAGACCGCAACTGAAAAGTTGTTATCAAAAATGGAAGGGTTGAATTTCTGCACGTAGAAGCAAAAGGC it is 0.0244; for GAGACCGCAACTGAAAAGTTGTTATCACAAATGGATGGGTTGAATTTCTGCACGTAGAAGCAAAAGGC it is 0.82. Turning to GAGACCGCAACTGAAAAGTTGTTATCAAAAATGGATGGGTTGAATTTCTGCACGTAGAAGCAAAAGGC, the fraction ligated turned out to be 0.809. The figure for GAGACCGCAACTGAAAAGTTGTTATCTGAAATGGATTGGTTGAATTTCTGCACGTAGAAGCAAAAGGC is 0.0547. Next, GAGACCGCAACTGAAAAGTTGTTATCTGAAATGGATAGGTTGAATTTCTGCACGTAGAAGCAAAAGGC: 0.0217; GAGACCGCAACTGAAAAGTTGTTATCTGAAATGGATCGGTTGAATTTCTGCACGTAGAAGCAAAAGGC: 0.00946; GAGACCGCAACTGAAAAGTTGTTATCTGAAATGGATGGGTTAAATTTCTGCACGTAGAAGCAAAAGGC: 0.698. Take GAGACCGCAACTGAAAAGTTGTTATCTGAAATGGATGGGTTCAATTTCTGCACGTAGAAGCAAAAGGC: the fraction ligated came out at 0.0569. Next, GAGACCGCAACTGAAAAGTTGTTATCTGAAATGGATGGGTTTAATTTCTGCACGTAGAAGCAAAAGGC: 0.444. Regarding GAGACCGCAACTGAAAAGTTGTTATCAAAAATGAATGGGTTGAATTTCTGCACGTAGAAGCAAAAGGC, the fraction ligated was determined as 0.0882. Turning to GAGACCGCAACTGAAAAGTTGTTATCAAAAATGCATGGGTTGAATTTCTGCACGTAGAAGCAAAAGGC, the fraction ligated was 0.00587. Next, GAGACCGCAACTGAAAAGTTGTTATCAAAAATGTATGGGTTGAATTTCTGCACGTAGAAGCAAAAGGC: 0.00746; GAGACCGCAACTGAAAAGTTGTTATCACAAATGGATCGGTTGAATTTCTGCACGTAGAAGCAAAAGGC: 0.0045; GAGACCGCAACTGAAAAGTTGTTATCACAAATGGATAGGTTGAATTTCTGCACGTAGAAGCAAAAGGC: 0.0114.

As to GAGACCGCAACTGAAAAGTTGTTATCACAAATGGATTGGTTGAATTTCTGCACGTAGAAGCAAAAGGC, the fraction ligated came to 0.0184.

As for GAGACCGCAACTGAAAAGTTGTTATCAAAAATGGATGGGTTGCATTTCTGCACGTAGAAGCAAAAGGC, the fraction ligated stood at 0.0816.

Regarding GAGACCGCAACTGAAAAGTTGTTATCAAAAATGGATGGGTTGTATTTCTGCACGTAGAAGCAAAAGGC, the fraction ligated turned out to be 0.102. On to GAGACCGCAACTGAAAAGTTGTTATCAAAAATGGATGGGTTGGATTTCTGCACGTAGAAGCAAAAGGC, for which the fraction ligated was 0.0763. The figure for GAGACCGCAACTGAAAAGTTGTTATCAAAAATGGATGGGTTCAATTTCTGCACGTAGAAGCAAAAGGC is 0.0107. Next, GAGACCGCAACTGAAAAGTTGTTATCAAAAATGGATGGGTTAAATTTCTGCACGTAGAAGCAAAAGGC: 0.279; GAGACCGCAACTGAAAAGTTGTTATCAAAAATGGATGGGTTTAATTTCTGCACGTAGAAGCAAAAGGC: 0.0941; GAGACCGCAACTGAAAAGTTGTTATCTGAAATGTATGGGTTGAATTTCTGCACGTAGAAGCAAAAGGC: 0.00294.

With GAGACCGCAACTGAAAAGTTGTTATCACAAATGGATGGGTTGCATTTCTGCACGTAGAAGCAAAAGGC, the fraction ligated is 0.0652.

Turning to GAGACCGCAACTGAAAAGTTGTTATCACAAATGGATGGGTTGGATTTCTGCACGTAGAAGCAAAAGGC, the fraction ligated turned out to be 0.0597. Consider GAGACCGCAACTGAAAAGTTGTTATCACAAATGGATGGGTTGTATTTCTGCACGTAGAAGCAAAAGGC, for which the fraction ligated amounted to 0.0901. On to GAGACCGCAACTGAAAAGTTGTTATCACAAATGGATGGGTTGACTTTCTGCACGTAGAAGCAAAAGGC, for which the fraction ligated came to 0.596.

For the variant GAGACCGCAACTGAAAAGTTGTTATCACAAATGGATGGGTTGAGTTTCTGCACGTAGAAGCAAAAGGC, the fraction ligated amounted to 0.674. The figure for GAGACCGCAACTGAAAAGTTGTTATCACAAATGGATGGGTTGATTTTCTGCACGTAGAAGCAAAAGGC is 0.719; for GAGACCGCAACTGAAAAGTTGTTATCTGAAATGGAGGGGTTGAATTTCTGCACGTAGAAGCAAAAGGC it is 0.16. GAGACCGCAACTGAAAAGTTGTTATCTGAAATGGAAGGGTTGAATTTCTGCACGTAGAAGCAAAAGGC: the fraction ligated amounted to 0.122. The figure for GAGACCGCAACTGAAAAGTTGTTATCTGAAATGGACGGGTTGAATTTCTGCACGTAGAAGCAAAAGGC is 0.0659; for GAGACCGCAACTGAAAAGTTGTTATCACAATTGGATGGGTTGAATTTCTGCACGTAGAAGCAAAAGGC it is 0.814; for GAGACCGCAACTGAAAAGTTGTTATCACAACTGGATGGGTTGAATTTCTGCACGTAGAAGCAAAAGGC it is 0.664. The figure for GAGACCGCAACTGAAAAGTTGTTATCACAAGTGGATGGGTTGAATTTCTGCACGTAGAAGCAAAAGGC is 0.798; for GAGACCGCAACTGAAAAGTTGTTATCACAAATTGATGGGTTGAATTTCTGCACGTAGAAGCAAAAGGC it is 0.639. GAGACCGCAACTGAAAAGTTGTTATCACAAATAGATGGGTTGAATTTCTGCACGTAGAAGCAAAAGGC: the fraction ligated worked out at 0.772. Next, GAGACCGCAACTGAAAAGTTGTTATCACAAATCGATGGGTTGAATTTCTGCACGTAGAAGCAAAAGGC: 0.641; GAGACCGCAACTGAAAAGTTGTTATCAACAATGGATGGGTTGAATTTCTGCACGTAGAAGCAAAAGGC: 0.83; GAGACCGCAACTGAAAAGTTGTTATCAATAATGGATGGGTTGAATTTCTGCACGTAGAAGCAAAAGGC: 0.822. Take GAGACCGCAACTGAAAAGTTGTTATCAAGAATGGATGGGTTGAATTTCTGCACGTAGAAGCAAAAGGC: the fraction ligated turned out to be 0.835. Consider GAGACCGCAACTGAAAAGTTGTTATCAAAAATGGCTGGGTTGAATTTCTGCACGTAGAAGCAAAAGGC, for which the fraction ligated was found to be 0.0346. The figure for GAGACCGCAACTGAAAAGTTGTTATCAAAAATGGTTGGGTTGAATTTCTGCACGTAGAAGCAAAAGGC is 0.0165. The figure for GAGACCGCAACTGAAAAGTTGTTATCAAAAATGGGTGGGTTGAATTTCTGCACGTAGAAGCAAAAGGC is 0.246; for GAGACCGCAACTGAAAAGTTGTTATCAAAAAAGGATGGGTTGAATTTCTGCACGTAGAAGCAAAAGGC it is 0.0454. Next, GAGACCGCAACTGAAAAGTTGTTATCAAAAACGGATGGGTTGAATTTCTGCACGTAGAAGCAAAAGGC: 0.0224. On to GAGACCGCAACTGAAAAGTTGTTATCAAAAAGGGATGGGTTGAATTTCTGCACGTAGAAGCAAAAGGC, for which the fraction ligated came to 0.0134.

As for GAGACCGCAACTGAAAAGTTGTTATCAAAAATGGATTGGTTGAATTTCTGCACGTAGAAGCAAAAGGC, the fraction ligated came to 0.0166.

For GAGACCGCAACTGAAAAGTTGTTATCAAAAATGGATAGGTTGAATTTCTGCACGTAGAAGCAAAAGGC, the fraction ligated came out at 0.00676. The figure for GAGACCGCAACTGAAAAGTTGTTATCAAAAATGGATCGGTTGAATTTCTGCACGTAGAAGCAAAAGGC is 0.00899. With GAGACCGCAACTGAAAAGTTGTTATCAAAAATCGATGGGTTGAATTTCTGCACGTAGAAGCAAAAGGC, the fraction ligated came to 0.719. For the variant GAGACCGCAACTGAAAAGTTGTTATCAAAAATAGATGGGTTGAATTTCTGCACGTAGAAGCAAAAGGC, the fraction ligated is 0.791. As for GAGACCGCAACTGAAAAGTTGTTATCAAAAATTGATGGGTTGAATTTCTGCACGTAGAAGCAAAAGGC, the fraction ligated is 0.593. Next, GAGACCGCAACTGAAAAGTTGTTATCACAAATGAATGGGTTGAATTTCTGCACGTAGAAGCAAAAGGC: 0.109; GAGACCGCAACTGAAAAGTTGTTATCACAAATGCATGGGTTGAATTTCTGCACGTAGAAGCAAAAGGC: 0.00831; GAGACCGCAACTGAAAAGTTGTTATCACAAATGTATGGGTTGAATTTCTGCACGTAGAAGCAAAAGGC: 0.00677.

These data come from the supplement of paper PMC6755084.
